In the supplement of paper PMC10567573:

B1: TMEM40 (parent)
chain: YGETDFHKQDGKAGLFSQEQYERN
B2: SPSB1 (parent)
chain: DMRDPTYRPLKQELQGLDYCKPTR

Variants of: B1
Test: protein stability index of a GFP-peptide fusion (GPS, HEK-293T) (PSI 1-6); higher = more stable
Conditions: c terminus: a fixed tail appended
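Further: lentivirally expressed fusions sorted by FACS into six bins by GFP to DsRed ratio, PSI derived from sequencing read proportions per bin multiplied by bin number.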

Variant | protein stability index
Y21M | 3.92
Y21T | 5.02
Y21A | 4.04
Y21I | 4.65
Y21D | 4.95
Y21G | 4.8
Y21R | 5.25
Y21P | 4.32
Y21N | 4.47
Y21L | 4.07
Y21V | 4.38
Y21C | 3.95
Y21Q | 4.44
Y21W | 4.09
Y21F | 4.25
Y21S | 4.63
Y21E | 4.35
Y21K | 4.54
Y21H | 4.73
Q20W | 3
Q20R | 3.92
Q20M | 3.92
Q20F | 3.41
Q20V | 3.66

Variant | protein stability index
Q20N | 4.12
Q20P | 3.55
Q20I | 3.85
Q20G | 3.48
Q20S | 4.3
Q20Y | 3.71
Q20D | 4.71
Q20L | 3.42
Q20C | 3.5
Q20E | 4.45
Q20T | 4.15
Q20A | 4.32
Q20H | 4.01
Q20K | 3.79
N24E | 4.54
N24T | 3.89
N24S | 4.22
N24M | 3.89
N24F | 3.8
N24Y | 3.85
N24W | 3.99
N24P | 3.25
N24C | 3.98
N24K | 4.6

Variant | protein stability index
N24I | 3.54
N24D | 4.4
N24H | 3.88
N24V | 3.67
N24L | 4.16
N24Q | 4.09
N24A | 3.63
N24G | 4.12
S17R | 4.27
S17P | 4.03
S17T | 3.81
S17Q | 4.48
S17V | 4.08
S17Y | 3.66
S17W | 1.97
S17N | 4.52
E22Y | 3.23
E22W | 2.74
E22A | 3.91
E22T | 4.01
E22C | 3.61
E22R | 3.71
E22M | 3.64
E22G | 3.83

Variant | protein stability index
E22P | 3.48
E22H | 3.34
E22K | 3.67
E22L | 3.61
E22V | 3.76
E22Q | 3.8
E22D | 4.03
E22I | 3.29
E22N | 3.85
E22F | 3.19
E19P | 3.72
E19R | 3.49
E19I | 2.23
E19H | 3.29
E19F | 2.54
E19T | 3.73
E19V | 3.22
E19D | 4.45
E19Y | 3.15
E19K | 3.23
E19C | 3.48
E19W | 2.64
E19M | 3.15
E19L | 2.21

Variant | protein stability index
E19S | 3.6
E19A | 3.54
E19G | 3.66
E19N | 3.9
E19Q | 3.7
Q18V | 3.36
Q18N | 3.66
Q18C | 2.82
Q18K | 4.55
Q18S | 3.3
Q18M | 3.23
Q18H | 4.29
Q18F | 3.65
Q18D | 4.5
Q18Y | 3.4
Q18P | 2.05
Q18L | 3.81
Q18A | 3.66
Q18T | 3.41
Q18E | 4.6
Q18W | 3.45
Q18G | 4.26
Q18I | 3.58
Q18R | 3.83

Variant | protein stability index
R23C | 4.32
R23E | 4.7
R23N | 4.16
R23L | 4
R23V | 3.67
R23G | 4.58
R23Y | 4.02
R23D | 4.9
R23I | 4.11
R23Q | 4.3
R23A | 4.69
R23F | 4.04
R23K | 4.37
R23T | 4.62
R23M | 4.17
R23W | 4.13
R23S | 4.37
R23H | 4.3
R23P | 4.21

Variants of: B2
Test: as above
Conditions: c terminus: a fixed tail appended

Variant | protein stability index
D1S | 3.02
D1M | 3.39
D1E | 3.53
D1I | 2.57
D1K | 3.06
D1G | 2.65
D1Y | 2.99
D1F | 3
D1Q | 2.83
D1H | 2.94
D1R | 3.32
D1C | 3.94
D1W | 1.78
D1N | 3.12
D1L | 2.36
D1T | 3.62
D1P | 3.82
D1A | 2.45
L10I | 3.67
L10C | 2.6
L10W | 3.24
L10D | 3.76
L10N | 3.16
L10G | 3.49
L10V | 3.14

Variant | protein stability index
L10Q | 3.68
L10T | 3.74
L10H | 3.11
L10Y | 2.81
L10R | 2.93
L10K | 3.22
L10E | 4.03
L10S | 3.56
L10F | 3.56
L10M | 3.25
L10A | 3.54
L10P | 3.37
D4F | 3.47
D4I | 3.13
D4A | 3.54
D4V | 2.81
D4P | 2.72
D4K | 3.13
D4L | 2.77
D4M | 2.73
D4T | 2.8
D4Y | 2.83
D4G | 2.97
D4Q | 3.6
D4E | 3.24

Variant | protein stability index
D4C | 2.96
D4N | 2.74
D4H | 2.7
D4S | 2.61
D4R | 3.53
R8C | 2.79
R8L | 3.23
R8K | 3.1
R8W | 2.99
R8V | 3.27
R8A | 3.8
R8S | 2.68
R8P | 3.17
R8I | 3.31
R8M | 3.5
R8E | 3.55
R8T | 3.08
R8Y | 3.13
R8F | 2.6
R8G | 3.43
R8D | 3.95
R8Q | 3.83
R8N | 3.46
Y7Q | 4.24
Y7C | 3.14

Variant | protein stability index
Y7R | 2.51
Y7N | 3.34
Y7A | 2.08
Y7T | 3.68
Y7V | 3.5
Y7H | 2.79
Y7D | 3.61
Y7W | 3.1
Y7M | 2.64
Y7F | 2.98
Y7I | 2.54
Y7K | 3.31
Y7S | 2.93
Y7E | 3.86
Y7L | 3.25
Y7G | 2.64
K11L | 3.24
K11M | 3.71
K11C | 2.48
K11I | 2.88
K11G | 3.17
K11E | 4.03
K11D | 3.85
K11A | 3.68
K11F | 3.24

Variant | protein stability index
K11H | 3.32
M2D | 3.86
M2S | 3.77
M2A | 3.22
M2K | 3.13
M2G | 3.78
M2I | 3.19
M2T | 2.64
M2C | 3.01
M2Q | 3.26
M2R | 3.71
M2W | 2.57
M2L | 3.01
M2P | 4.62
M2V | 3.02
M2E | 3.51
M2H | 3.64
M2F | 3.42
M2Y | 2.72
M2N | 3.38
P9Q | 2.72
P9N | 3.35
P9R | 2.25
P9Y | 2.67
P9H | 2.35

Variant | protein stability index
P9D | 3.28
P9S | 3.35
P9K | 2.94
P9A | 2.69
P9V | 3.19
P9F | 3.26
P9C | 2.52
P9L | 2.58
P9E | 3.67
P9G | 3.51
P9T | 2.64
P9W | 2.99
P9I | 3.32
P9M | 2.6
R3K | 3.2
R3T | 3.42
R3L | 2.9
R3N | 3.19
R3W | 3.14
R3Y | 2.8
R3H | 3.08
R3C | 2.9
R3E | 3.84
R3P | 3.36
R3I | 2.96

Variant | protein stability index
R3Q | 3.45
R3M | 2.99
R3S | 3.89
R3A | 3.16
R3G | 3.21
R3F | 2.92
R3D | 2.59
P5F | 3
P5I | 2.63
P5L | 3.53
P5W | 2.76
P5C | 3.21
P5K | 3.28
P5R | 2.71
P5M | 3.57
P5H | 3.88
P5Y | 2.93
P5T | 3.17
P5D | 3.1
P5Q | 3.55
P5V | 3.01
P5E | 3.65
P5S | 3.61
P5N | 2.93
P5G | 3.19

Variant | protein stability index
P5A | 3.28
T6G | 3.93
T6Y | 2.98
T6W | 4.09
T6L | 2.71
T6E | 3.51
T6A | 3.33
T6H | 2.9
T6N | 3.13
T6S | 3.59
T6Q | 3.55
T6I | 3.63
T6C | 2.91
T6D | 2.72
T6K | 3.47
T6V | 3.31
T6F | 3.24
T6P | 3.57
T6R | 3.62
T6M | 2.92
